Publication PMC7116351 (Protein expression and purification, 2019)

Target: the molecule itself
Assay: SEC

B1: MgtE Mg2+ channel from Thermus thermophilus (wild type) (natural protein, UniProt Q5SMG8 1-450, looked up)
chain: MEEKLAVSLQEALQEGDTRALREVLEEIHPQDLLALWDELKGEHRYVVLTLLPKAKAAEVLSHLSPEEQAEYLKTLPPWRLREILEELSLDDLADALQAVRKEDPAYFQRLKDLLDPRTRAEVEALARYEEDEAGGLMTPEYVAVREGMTVEEVLRFLRRAAPDAETIYYIYVVDEKGRLKGVLSLRDLIVADPRTRVAEIMNPKVVYVRTDTDQEEVARLMADYDFTVLPVVDEEGRLVGIVTVDDVLDVLEAEATEDIHKLGAVDVPDLVYSEAGPVALWLARVRWLVILILTGMVTSSILQGFESVLEAVTALAFYVPVLLGTGGNTGNQSATLIIRALATRDLDLRDWRRVFLKEMGVGLLLGLTLSFLLVGKVYWDGHPLLLPVVGVSLVLIVFFANLVGAMLPFLLRRLGVDPALVSNPLVATLSDVTGLLIYLSVARLLLEAV
stoichiometry N: 2
